Measurements reported in the supplement of paper PMC11316812.
± gives the standard deviation of the averaged measurements.

How the values were obtained:
[1] = tested on: MCF7; assay: percentage of EdU-negative (G0-arrested) nuclei per well, 72 h; higher = more G0 arrest; settings: reference: sequence is the full UniProt precursor, the tested protein was the secreted form or ectodomain
[2] = tested on: hTERT-HMEC; assay: as above; settings: reference: sequence is the full UniProt precursor, the tested protein was the secreted form or ectodomain
[3] = protein concentration 0.0225 µM
[4] = protein concentration 0.00775 µM
[5] = protein concentration 0.0775 µM
[6] = protein concentration 0.0357143 µM
[7] = protein concentration 0.357143 µM
[8] = protein concentration 0.0270475 µM
[9] = protein concentration 0.270475 µM
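Further: secreted proteins added to cultured cells, EdU pulse at the end, nuclei found by Hoechst imaging, EdU status from nuclear versus surrounding ring intensity ratio, PBS as neutral control.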

Sequence | percentage of EdU-negative [1, 3] [%] | percentage of EdU-negative ([1]; protein concentration 0.225 µM) [%] | percentage of EdU-negative [2, 3] [%] | percentage of EdU-negative ([2]; protein concentration 0.225 µM) [%] | other results
MAQLWLSCFLLPALVVSVAANVAPKFLANMTSVILPEDLPVGAQAFWLVAEDQDNDPLTYGMSGPNAYFFAVTPKTGEVKLASALDYETLYTFKVTISVSDPYIQVQREMLVIVEDRNDNAPVFQNTAFSTSINETLPVGSVVFSVLAVDKDMGSAGMVVYSIEKVIPSTGDSEHLFRILANGSIVLNGSLSYNNKSAFYQLELKACDLGGMYHNTFTIQCSLPVFLSISVVDQPDLDPQFVREFYSASVAEDAAKGTSVLTVEAVDGDKGINDPVIYSISYSTRPGWFDIGADGVIRVNGSLDREQLLEADEEVQLQVTATETHLNIYGQEAKVSIWVTVRVMDVNDHKPEFYNCSLPACTFTPEEAQVNFTGYVDEHASPRIPIDDLTMVVYDPDKGSNGTFLLSLGGPDAEAFSVSPERAVGSASVQVLVRVSALVDYERQTAMAVQVVATDSVSQNFSVAMVTIHLRDINDHRPTFPQSLYVLTVPEHSATGSVVTDSIHATDPDTGAWGQITYSLLPGNGADLFQVDPVSGTVTVRNGELLDRESQAVYYLTLQATDGGNLSSSTTLQIHLLDINDNAPVVSGSYNIFVQEEEGNVSVTIQAHDNDEPGTNNSRLLFNLLPGPYSHNFSLDPDTGLLRNLGPLDREAIDPALEGRIVLTVLVSDCGEPVLGTKVNVTITVEDINDNLPIFNQSSYNFTVKEEDPGVLVGVVKAWDADQTEANNRISFSLSGSGANYFMIRGLVLGAGWAEGYLRLPPDVSLDYETQPVFNLTVSAENPDPQGGETIVDVCVNVKDVNDNPPTLDVASLRGIRVAENGSQHGQVAVVVASDVDTSAQLEIQLVNILCTKAGVDVGSLCWGWFSVAANGSVYINQSKAIDYEACDLVTLVVRACDLATDPGFQAYSNNGSLLITIEDVNDNAPYFLPENKTFVIIPELVLPNREVASVRARDDDSGNNGVILFSILRVDFISKDGATIPFQGVFSIFTSSEADVFAGSIQPVTSLDSTLQGTYQVTVQARDRPSLGPFLEATTTLNLFTVDQSYRSRLQFSTPKEEVGANRQAINAALTQATRTTVYIVDIQDIDSAARARPHSYLDAYFVFPNGSALTLDELSVMIRNDQDSLTQLLQLGLVVLGSQESQESDLSKQLISVIIGLGVALLLVLVIMTMAFVCVRKSYNRKLQAMKAAKEARKTAAGVMPSAPAIPGTNMYNTERANPMLNLPNKDLGLEYLSPSNDLDSVSVNSLDDNSVDVDKNSQEIKEHRPPHTPPEPDPEPLSVVLLGRQAGASGQLEGPSYTNAGLDTTDL [Q9BYE9] | 26.56 ± 0.19 | 26.4 ± 2.1 | 4.86 ± 0.083 | 7.42 ± 0.98 | –
MAQRCVCVLALVAMLLLVFPTVSRSMGPRSGEHQRASRIPSQFSKEERVAMKEALKGAIQIPTVTFSSEKSNTTALAEFGKYIHKVFPTVVSTSFIQHEVVEEYSHLFTIQGSDPSLQPYLLMAHFDVVPAPEEGWEVPPFSGLERDGIIYGRGTLDDKNSVMALLQALELLLIRKYIPRRSFFISLGHDEESSGTGAQRISALLQSRGVQLAFIVDEGGFILDDFIPNFKKPIALIAVSEKGSMNLMLQVNMTSGHSSAPPKETSIGILAAAVSRLEQTPMPIIFGSGTVVTVLQQLANEFPFPVNIILSNPWLFEPLISRFMERNPLTNAIIRTTTALTIFKAGVKFNVIPPVAQATVNFRIHPGQTVQEVLELTKNIVADNRVQFHVLSAFDPLPVSPSDDKALGYQLLRQTVQSVFPEVNITAPVTSIGNTDSRFFTNLTTGIYRFYPIYIQPEDFKRIHGVNEKISVQAYETQVKFIFELIQNADTDQEPVSHLHKL [Q6GTS8] | 28 ± 2 | 24.4 ± 2.8 | 4.69 ± 0.48 | 5.33 ± 0.14 | –
MAQRMTTQLLLLLVWVAVVGEAQTRIAWARTELLNVCMNAKHHKEKPGPEDKLHEQCRPWRKNACCSTNTSQEAHKDVSYLYRFNWNHCGEMAPACKRHFIQDTCLYECSPNLGPWIQQVDQSWRKERVLNVPLCKEDCEQWWEDCRTSYTCKSNWHKGWNWTSGFNKCAVGAACQPFHFYFPTPTVLCNEIWTHSYKVSNYSRGSGRCIQMWFDPAQGNPNEEVARFYAAAMSGAGPWAAWPFLLSLALMLLWLLS | 25.4 ± 1.9 | 24.4 ± 0.58 | 15.7 ± 0.18 | 10.3 ± 8.7 | –
MAQSRVLLLLLLLPPQLHLGPVLAVRAPGFGRSGGHSLSPEENEFAEEEPVLVLSPEEPGPGPAAVSCPRDCACSQEGVVDCGGIDLREFPGDLPEHTNHLSLQNNQLEKIYPEELSRLHRLETLNLQNNRLTSRGLPEKAFEHLTNLNYLYLANNKLTLAPRFLPNALISVDFAANYLTKIYGLTFGQKPNLRSVYLHNNKLADAGLPDNMFNGSSNVEVLILSSNFLRHVPKHLPPALYKLHLKNNKLEKIPPGAFSELSSLRELYLQNNYLTDEGLDNETFWKLSSLEYLDLSSNNLSRVPAGLPRSLVLLHLEKNAIRSVDANVLTPIRSLEYLLLHSNQLREQGIHPLAFQGLKRLHTVHLYNNALERVPSGLPRRVRTLMILHNQITGIGREDFATTYFLEELNLSYNRITSPQVHRDAFRKLRLLRSLDLSGNRLHTLPPGLPRNVHVLKVKRNELAALARGALVGMAQLRELYLTSNRLRSRALGPRAWVDLAHLQLLDIAGNQLTEIPEGLPESLEYLYLQNNKISAVPANAFDSTPNLKGIFLRFNKLAVGSVVDSAFRRLKHLQVLDIEGNLEFGDISKDRGRLGKEKEEEEEEEEEEEETR [Q7Z5L7] | – | – | – | – | percentage of EdU-negative [1, 4]: 24.5 ± 1.1%; percentage of EdU-negative [1, 5]: 23.2 ± 0.88%; percentage of EdU-negative [2, 4]: 4.64 ± 0.6%; percentage of EdU-negative [2, 5]: 5.72 ± 1.3%
MAQTNSFFMLISSLMFLSLSQGQESQTELPNPRISCPEGTNAYRSYCYYFNEDPETWVDADLYCQNMNSGNLVSVLTQAEGAFVASLIKESSTDDSNVWIGLHDPKKNRRWHWSSGSLVSYKSWDTGSPSSANAGYCASLTSCSGFKKWKDESCEKKFSFVCKFKN | – | – | – | – | percentage of EdU-negative [1, 6]: 27 ± 1.8%; percentage of EdU-negative [1, 7]: 24.6 ± 0.83%; percentage of EdU-negative [2, 6]: 5.51 ± 1.2%; percentage of EdU-negative [2, 7]: 5.35 ± 1.6%
MAQTSSYFMLISCLMFLSQSQGQEAQTELPQARISCPEGTNAYRSYCYYFNEDRETWVDADLYCQNMNSGNLVSVLTQAEGAFVASLIKESGTDDFNVWIGLHDPKKNRRWHWSSGSLVSYKSWGIGAPSSVNPGYCVSLTSSTGFQKWKDVPCEDKFSFVCKFKN | – | – | – | – | percentage of EdU-negative [1, 8]: 25 ± 1.8%; percentage of EdU-negative [1, 9]: 23.9 ± 0.49%; percentage of EdU-negative [2, 8]: 6.23 ± 0.99%; percentage of EdU-negative [2, 9]: 6.73 ± 0.84%
MAQYLSTLLLLLATLAVALAWSPKEEDRIIPGGIYNADLNDEWVQRALHFAISEYNKATKDDYYRRPLRVLRARQQTVGGVNYFFDVEVGRTICTKSQPNLDTCAFHEQPELQKKQLCSFEIYEVPWENRRSLVKSRCQES | 25.5 ± 1.2 | 25 ± 0.45 | 5.26 ± 0.4 | 5.09 ± 0.29 | –
MARAAALLPSRSPPTPLLWPLLLLLLLETGAQDVRVQVLPEVRGQLGGTVELPCHLLPPVPGLYISLVTWQRPDAPANHQNVAAFHPKMGPSFPSPKPGSERLSFVSAKQSTGQDTEAELQDATLALHGLTVEDEGNYTCEFATFPKGSVRGMTWLRVIAKPKNQAEAQKVTFSQDPTTVALCISKEGRPPARISWLSSLDWEAKETQVSGTLAGTVTVTSRFTLVPSGRADGVTVTCKVEHESFEEPALIPVTLSVRYPPEVSISGYDDNWYLGRTDATLSCDVRSNPEPTGYDWSTTSGTFPTSAVAQGSQLVIHAVDSLFNTTFVCTVTNAVGMGRAEQVIFVRETPNTAGAGATGGIIGGIIAAIIATAVAATGILICRQQRKEQTLQGAEEDEDLEGPPSYKPPTPKAKLEAQEMPSQLFTLGASEHSPLKTPYFDAGASCTEQEMPRYHELPTLEERSGPLHPGATSLGSPIPVPPGPPAVEDVSLDLEDEEGEEEEEYLDKINPIYDALSYSSPSDSYQGKGFVMSRAMYV | 21.9 ± 1.3 | 22.8 ± 0.43 | 4.75 ± 0.29 | 5.33 ± 0.83 | –
MARAGPAWLLLAIWVVLPSWLSSAKVSSLIERISDPKDLKKLLRTRNNVLVLYSKSEVAAENHLRLLSTVAQAVKGQGTICWVDCGDAESRKLCKKMKVDLSPKDKKVELFHYQDGAFHTEYNRAVTFKSIVAFLKDPKGPPLWEEDPGAKDVVHLDSEKDFRRLLKKEEKPLLIMFYAPWCSMCKRMMPHFQKAATQLRGHAVLAGMNVYSSEFENIKEEYSVRGFPTICYFEKGRFLFQYDNYGSTAEDIVEWLKNPQPPQPQVPETPWADEGGSVYHLTDEDFDQFVKEHSSVLVMFHAPWCGHCKKMKPEFEKAAEALHGEADSSGVLAAVDATVNKALAERFHISEFPTLKYFKNGEKYAVPVLRTKKKFLEWMQNPEAPPPPEPTWEEQQTSVLHLVGDNFRETLKKKKHTLVMFYAPWCPHCKKVIPHFTATADAFKDDRKIACAAVDCVKDKNQDLCQQEAVKGYPTFHYYHYGKFAEKYDSDRTELGFTNYIRALREGDHERLGKKKEEL | – | – | – | – | percentage of EdU-negative ([1]; protein concentration 0.019 µM): 22.8 ± 0.61%; percentage of EdU-negative ([1]; protein concentration 0.19 µM): 22.5 ± 0.95%; percentage of EdU-negative ([2]; protein concentration 0.019 µM): 4.5 ± 0.56%; percentage of EdU-negative ([2]; protein concentration 0.19 µM): 6.73 ± 0.2%
MARAHWGCCPWLVLLCACAWGHTKPVDLGGQDVRNCSTNPPYLPVTVVNTTMSLTALRQQMQTQNLSAYIIPGTDAHMNEYIGQHDERRAWITGFTGSAGTAVVTMKKAAVWTDSRYWTQAERQMDCNWELHKEVGTTPIVTWLLTEIPAGGRVGFDPFLLSIDTWESYDLALQGSNRQLVSITTNLVDLVWGSERPPVPNQPIYALQEAFTGSTWQEKVSGVRSQMQKHQKVPTAVLLSALEETAWLFNLRASDIPYNPFFYSYTLLTDSSIRLFANKSRFSSETLSYLNSSCTGPMCVQIEDYSQVRDSIQAYSLGDVRIWIGTSYTMYGIYEMIPKEKLVTDTYSPVMMTKAVKNSKEQALLKASHVRDAVAVIRYLVWLEKNVPKGTVDEFSGAEIVDKFRGEEQFSSGPSFETISASGLNAALAHYSPTKELNRKLSSDEMYLLDSGGQYWDGTTDITRTVHWGTPSAFQKEAYTRVLIGNIDLSRLIFPAATSGRMVEAFARRALWDAGLNYGHGTGHGIGNFLCVHEWPVGFQSNNIAMAKGMFTSIEPGYYKDGEFGIRLEDVALVVEAKTKYPGSYLTFEVVSFVPYDRNLIDVSLLSPEHLQYLNRYYQTIREKVGPELQRRQLLEEFEWLQQHTEPLAARAPDTASWASVLVVSTLAILGWSV | 23.2 ± 0.31 | 26.8 ± 0.78 | 5.4 ± 1.8 | 6.21 ± 0.83 | –
MARAMAAAWPLLLVALLVLSWPPPGTGDVVVQAPTQVPGFLGDSVTLPCYLQVPNMEVTHVSQLTWARHGESGSMAVFHQTQGPSYSESKRLEFVAARLGAELRNASLRMFGLRVEDEGNYTCLFVTFPQGSRSVDIWLRVLAKPQNTAEVQKVQLTGEPVPMARCVSTGGRPPAQITWHSDLGGMPNTSQVPGFLSGTVTVTSLWILVPSSQVDGKNVTCKVEHESFEKPQLLTVNLTVYYPPEVSISGYDNNWYLGQNEATLTCDARSNPEPTGYNWSTTMGPLPPFAVAQGAQLLIRPVDKPINTTLICNVTNALGARQAELTVQVKEGPPSEHSGISRNAIIFLVLGILVFLILLGIGIYFYWSKCSREVLWHCHLCPSSTEHASASANGHVSYSAVSRENSSSQDPQTEGTR [A0A0C4DG49] | 23.8 ± 1.6 | 26.1 ± 2.5 | 4.71 ± 0.025 | 10.7 ± 2.4 | –
